In patent US20110136737A1:

T1: GIP receptor (GIP RBA, RIN), P43219
T1 chain: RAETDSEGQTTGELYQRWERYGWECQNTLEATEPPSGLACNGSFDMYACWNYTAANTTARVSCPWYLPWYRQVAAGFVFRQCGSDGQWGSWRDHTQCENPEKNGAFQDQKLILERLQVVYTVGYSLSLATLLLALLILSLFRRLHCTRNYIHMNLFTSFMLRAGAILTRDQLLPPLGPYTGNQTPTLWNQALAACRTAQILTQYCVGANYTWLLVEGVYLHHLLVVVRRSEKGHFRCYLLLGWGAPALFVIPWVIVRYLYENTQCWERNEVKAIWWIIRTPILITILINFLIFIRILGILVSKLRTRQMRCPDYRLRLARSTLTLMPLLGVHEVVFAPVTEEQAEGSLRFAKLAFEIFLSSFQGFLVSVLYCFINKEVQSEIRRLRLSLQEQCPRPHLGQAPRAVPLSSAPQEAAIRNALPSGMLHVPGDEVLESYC

T2: human GIP receptor (human), P48546
T2 chain: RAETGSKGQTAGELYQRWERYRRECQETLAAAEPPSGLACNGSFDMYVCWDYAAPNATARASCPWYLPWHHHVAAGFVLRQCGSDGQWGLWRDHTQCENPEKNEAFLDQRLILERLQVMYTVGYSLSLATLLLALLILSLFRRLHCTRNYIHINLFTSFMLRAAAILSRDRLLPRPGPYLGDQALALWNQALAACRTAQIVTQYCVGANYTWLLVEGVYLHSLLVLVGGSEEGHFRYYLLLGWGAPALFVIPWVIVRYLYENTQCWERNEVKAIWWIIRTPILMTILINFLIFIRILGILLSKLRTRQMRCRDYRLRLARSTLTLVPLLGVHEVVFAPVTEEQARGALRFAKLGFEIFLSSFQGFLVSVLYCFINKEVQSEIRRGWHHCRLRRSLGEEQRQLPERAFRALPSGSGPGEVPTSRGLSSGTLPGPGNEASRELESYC


Molecular target: T1, GIP receptor (GIP RBA, RIN), P43219
Assay: cell-based or functional assay
GYAEGTFISDYSIAMDKIHQQDFVNWLLAQKPSSGAPPPS (modifications not checked) [0601GIP4178] was tested, and the Cyclase was 36.2.
Binder GYAEGTFISDYSIAMDKIRQQDFVNWLLAQKPSSGAPPPS (modifications not checked) [0601GIP4293] has a Cyclase of 20.

Molecular target: T2, human GIP receptor (human), P48546
Assay: 125I-GIP displacement by 10 nM analog, HEK-GIPR membranes
For YAEGFISDYSIAMDKIHQQDFVNWLLAQKPSPKKIRYS (modifications not checked) [0601GIP4820], the % Inh at 10 nM was 46%.
YAEGTFISDYSIAMDKIHQQDFVNWLLAQKPSPKKIRYS (modifications not checked) [0601GIP4823] gave a % Inh at 10 nM of 94.1%.
With YAEGTFISDYSIALDKIHQQDFVNWLLAQKPKKIRYS (modifications not checked) [0601GIP4807] the % Inh at 10 nM was 96.1%.
With YAEGTFISDYSIAMDKIHQQDFVNWLLAQKAKKIRYS (modifications not checked) [0601GIP4814] the % Inh at 10 nM was 88%.
YAEGTFISDYSIAMDKIHQQDFVNWLLAQKPKKIRYS (modifications not checked) [0601GIP4762] showed a % Inh at 10 nM of 79.1%.
With YAEGTFISDYSIAMDKIHQQDFVNWLLAQKPKKIRYA (modifications not checked) [0601GIP4819] the % Inh at 10 nM was 80.4%.
HAEGTFISDYSIAMDKIHQQDFVNWLLAQKPKKIRYS (modifications not checked) [0601GIP4840] showed a % Inh at 10 nM of 44.1%.
Binder YAEGTFISDYSIAMDKIHQQDFVNWLLAQKPKAIRYS (modifications not checked) [0601GIP4816] has a % Inh at 10 nM of 87.3%.
In the case of YAEGTFISDYSIAMDKIHQQDFVPWLLAQKPKKIRYS (modifications not checked) [0601GIP4768], the % Inh at 10 nM is reported as 17.9%.
With YAEGTFISDYSIALDKIRQQEFVNWLLAQKPKKIRYS (modifications not checked) [0601GIP4539] the % Inh at 10 nM was 98.7%.
Binder HGEGTFISDYSIALDKIAQQEFVNWLLAQKPKKIRYS (modifications not checked) [0601GIP4841] has a % Inh at 10 nM of 56.6%.
In the case of YAEGTFISDYSIAMDKIHQQDFVNWLLAQKPKKLKPS (modifications not checked) [0601GIP4822], the % Inh at 10 nM is reported as 95.4%.
HGEGTFISDYSIAMDKIHQQDFVNWLLAQKPKKIRYS (modifications not checked) [0601GIP4839] showed a % Inh at 10 nM of 23.9%.
YADGTFISDYSIAMDKIHQQDFVNWLLAQKPKKIRYS (modifications not checked) [0601GIP4390] gave a % Inh at 10 nM of 90.3%.
For YAEGTFISDYSIAMDKIHQQDFVNWLLAQKPKKIRYS (modifications not checked) [0601GIP4233], the % Inh at 10 nM was 89%.
Binder HGEGTFISDYSIALDKIRQQEFVNWLLAQKPKKIRYS (modifications not checked) [0601GIP4842] has a % Inh at 10 nM of 40.8%.
For YSEGTFISDYSIAMDKIHQQDFVNWLLAQKPKKIRYS (modifications not checked) [0601GIP4538], the % Inh at 10 nM was 94.2%.
With YAEGTFISDYSIAMDKIHQQDFVNWLLAQKPAKIRYS (modifications not checked) [0601GIP4815] the % Inh at 10 nM was 89%.
YAEGTFISDYSIAMDKIHQQDFVNPLLAQKPKKIRYS (modifications not checked) [0601GIP4770] was tested, and the % Inh at 10 nM was 10.8%.
Binder YSDGTFISDYSIAMDKIHQQDFVNWLLAQKPKKIRYS (modifications not checked) [0601GIP4386] has a % Inh at 10 nM of 93.6%.
YAEGTFISDYSIAMDKIHQQDFVNWLLAQKPKSARPS (modifications not checked) [0601GIP4821] showed a % Inh at 10 nM of 93.5%.
Binder YAEGTFISDYSIALDKIRQQDFVEWLLAQKPKKIRYS (modifications not checked) [0601GIP4540] has a % Inh at 10 nM of 92.2%.
In the case of YAEGTFISDYSIALDKIAQQEFVNWLLAQKPKKIRYS (modifications not checked) [0601GIP4631], the % Inh at 10 nM is reported as 79%.
YAEGTFISDYSIAMDKIHQQDFVNELLAQKPKKIRYS (modifications not checked) [0601GIP4769] gave a % Inh at 10 nM of 42.8%.
YAEGTFISDYSIAMDKIHQQDFVNWLEAQKPKKIRYS (modifications not checked) [0601GIP4771] was tested, and the % Inh at 10 nM was 17.8%.
YAEGTFISDYSIAMDKIHQQDFVNWLLAQKGFVLWKGIQ (modifications not checked) [0601GIP4619] gave a % Inh at 10 nM of 84.6%.
Work on YAEGTFISDYSIAMDKIHQQDFVNWLLAQKPKGKGKS (modifications not checked) [0601GIP4700] yielded a % Inh at 10 nM of 86.6%.
For LYAEGTFISDYSIAMDKIHQQDFVNWLLAQKPKKIRYS (modifications not checked) [0601GIP4798], the % Inh at 10 nM was 82.3%.
LYAEGTFISDYSIALDKIAQQEFVNWLLAQKPKKIRYS (modifications not checked) [0601GIP4803] was tested, and the % Inh at 10 nM was 89.9%.
For LYAEGTFISDYSIALDKIAQQEFVNWLLAQKPKKIRYS (modifications not checked) [0601GIP4802], the % Inh at 10 nM was 87.3%.
IYAEGTFISDYSIAMDKIHQQDFVNWLLAQKPKKIRYS (modifications not checked) [0601GIP4801] showed a % Inh at 10 nM of 88.8%.
YAEGTFISDYSIAMDKIHQQDFVNWLLAQKPSKEIIH (modifications not checked) [0601GIP4710] gave a % Inh at 10 nM of 79.2%.
YAEGTFISDYSIAMDKIHQQDFVNWLLAQKPSKEIIS (modifications not checked) [0601GIP4765] gave a % Inh at 10 nM of 67%.

Molecular target: T1, GIP receptor (GIP RBA, RIN), P43219
Assay: cell-based or functional assay
Remark: another data set of the same source
GYAEGTFISDYSIAMDKIHQQDFVNWLLAQKPSSGAPPPS (modifications not checked) [0601GIP4178] was tested, and the Cyclase was 96.
In the case of YAEGTFISEYSIAMDKIHQQDFVNWLLAQKPSSGAPPPS (modifications not checked) [0601GIP4151], the Cyclase is reported as 10000.
For YAEGTFISDYSIAMDKIHQQDFVNWLLAQAPSSGAPPPS (modifications not checked) [0601GIP4165], the Cyclase was 40.
